Results published in patent publication US20260132197A1 (NANJING LEGEND BIOTECH, published 2026).
One block for each binder: values may come before it.

Legend:
[1] = target: T1, human CD47 on cells (SHP-77 tumor cells, human red blood cells, CCRF-CEM cells, human CD47 CHO-K1 stable cell … (human, UniProt Q08722 19-323)); assay: flow cytometry on human RBCs; poor fitting, not accurate;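 as to Fitted Maximal MFI: antibody binding measured by flow cytometry as geometric mean fluorescence intensity over a range of antibody concentrations, with EC50 and maximum taken from a sigmoidal dose-response fit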
T1 construct: whole, on cells; also called RBC

[2] = target: T1, human CD47 on cells (SHP-77 tumor …); assay: flow cytometry on SHP-77 cells
Human CD47-C33G [3] = target: T2, Human CD47-C33G (human, UniProt Q08722 19-135); assay: SPR, IgG captured, CD47 in flow; exp 3
T2 construct: also called CD47 mutein with C33G mutation

[4] = target: T3, wild type human CD47 (Acro Biosystems, cat. no. CD7-H5227) (human, UniProt Q08722 19-139); assay: SPR, IgG captured, CD47 in flow; exp 3
T3 construct: Bought protein used as SPR analyte; also called Human CD47 wt; wild-type CD47

[5] = target: T4, cynomolgus CD47 on CHO-K1 stable cell line (cynomolgus, UniProt A0A5F8AK49 19-323 (rhesus entry)); assay: flow cytometry on cynomolgus CD47 CHO-K1 cells
T4 construct: whole, on cells; also called cynomolgus CD47/CHO-K1

[6] = target: T1, human CD47 on cells (SHP-77 tumor …); assay: flow cytometry on human CD47 CHO-K1 cells
[7] = target: T1, human CD47 on cells (SHP-77 tumor …); assay: flow cytometry on human RBCs;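 also: antibody binding measured by flow cytometry as geometric mean fluorescence intensity over a range of antibody concentrations, with EC50 and maximum taken from a sigmoidal dose-response fit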
Human CD47-C33G [8] = target: T2, Human CD47-C33G; assay: SPR, IgG captured, CD47 in flow; exp 3; remark: listed apart in the source
[9] = target: T3, wild type human CD47 (Acro Biosystems, …); assay: SPR, IgG captured, CD47 in flow; exp 3; remark: listed apart in the source
[10] = target: T1, human CD47 on cells (SHP-77 tumor …); assay: flow cytometry on human RBCs; plateau not reached, not accurate;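 as to Fitted Maximal MFI: antibody binding measured by flow cytometry as geometric mean fluorescence intensity over a range of antibody concentrations, with EC50 and maximum taken from a sigmoidal dose-response fit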
Human CD47-C33G [11] = target: T2, Human CD47-C33G; assay: SPR, IgG captured, CD47 in flow; exp 1
[12] = target: T3, wild type human CD47 (Acro Biosystems, …); assay: SPR, IgG captured, CD47 in flow; exp 1
Human CD47-C33G [13] = target: T2, Human CD47-C33G; assay: SPR, IgG captured, CD47 in flow; exp 2;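 also: rates derived from association and dissociation curves, KD estimated from them, C33G mutein used to avoid CD47 IgV homodimers for true monovalent affinity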
[14] = target: T3, wild type human CD47 (Acro Biosystems, …); assay: SPR, IgG captured, CD47 in flow; exp 2;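 also: rates derived from association and dissociation curves, KD estimated from them, C33G mutein used to avoid CD47 IgV homodimers for true monovalent affinity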
Human CD47-C33G [15] = target: T2, Human CD47-C33G; assay: SPR, IgG captured, CD47 in flow; exp 4
[16] = target: T3, wild type human CD47 (Acro Biosystems, …); assay: SPR, IgG captured, CD47 in flow; exp 4
Human CD47-C33G [17] = target: T2, Human CD47-C33G; assay: SPR, IgG captured, CD47 in flow; exp 4; remark: listed apart in the source
[18] = target: T3, wild type human CD47 (Acro Biosystems, …); assay: SPR, IgG captured, CD47 in flow; exp 4; remark: listed apart in the source
Human CD47-C33G [19] = target: T2, Human CD47-C33G; assay: SPR, IgG captured, CD47 in flow; exp 1; remark: listed apart in the source
[20] = target: T3, wild type human CD47 (Acro Biosystems, …); assay: SPR, IgG captured, CD47 in flow; exp 1; remark: listed apart in the source
Human CD47-C33G [21] = target: T2, Human CD47-C33G; assay: SPR, IgG captured, CD47 in flow; exp 1; remark: listed apart in the source

EC50 [1]: 3.9 nM
EC50 [2]: 6.9 nM
Fitted Maximal MFI [2]: 44700 MFI
Kd (Human CD47-C33G [3]): 14 nM
koff (Human CD47-C33G [3]): 0.0041 s⁻¹
kon (Human CD47-C33G [3]): 290000 M⁻¹ s⁻¹
Kd [4]: 2.6 nM
koff [4]: 0.0019 s⁻¹
kon [4]: 720000 M⁻¹ s⁻¹
EC50 [5]: 1.8 nM
EC50 [6]: 1.9 nM
Fitted Maximal MFI [7]: 45300 MFI
B1: 108VH5.M16 / 108VL1.M5 (antibody, human IgG4 S228P, kappa, V domains shown)
VH: EVQLVQSGAEVKKPGASVKVSCKASGYTFTHHWMHWVRQAPGQGLEWMGMIDASDGETRYAQKFQGRVTMTRDTSTSTVYMELSSLRSEDTAVYYCARLGRYYFDYWGQGTLVTVSS
VL: EIVLTQSPATLSLSPGERATLSCRASQSVSSYLAWYQQKPGQAPRLLIYGASNRATGIPARFSGSGSGTDFTLTISSLEPEDFAVYYCGESYGHLYTFGGGTKVEIKR
notes: Full-length IgG4 (S228P), kappa; also called VH5.M16 VL1.M5

Kd (Human CD47-C33G [8]): 1.9 nM
koff (Human CD47-C33G [8]): 0.00084 s⁻¹
kon (Human CD47-C33G [8]): 430000 M⁻¹ s⁻¹
Kd [9]: 0.41 nM
koff [9]: 0.00041 s⁻¹
kon [9]: 1e+06 M⁻¹ s⁻¹
EC50 [2]: 5.5 nM
Fitted Maximal MFI [2]: 46600 MFI
Kd (Human CD47-C33G [3]): 1.9 nM
koff (Human CD47-C33G [3]): 0.00084 s⁻¹
kon (Human CD47-C33G [3]): 430000 M⁻¹ s⁻¹
Kd [4]: 0.41 nM
koff [4]: 0.00041 s⁻¹
kon [4]: 1e+06 M⁻¹ s⁻¹
EC50 [10]: 7.6 nM
Kd (Human CD47-C33G [11]): 2.1 nM
koff (Human CD47-C33G [11]): 0.00087 s⁻¹
kon (Human CD47-C33G [11]): 410000 M⁻¹ s⁻¹
Kd [12]: 0.39 nM
koff [12]: 0.00039 s⁻¹
kon [12]: 1e+06 M⁻¹ s⁻¹
Kd (Human CD47-C33G [13]): 2.6 nM
koff (Human CD47-C33G [13]): 0.00097 s⁻¹
kon (Human CD47-C33G [13]): 380000 M⁻¹ s⁻¹
Kd [14]: 0.47 nM
koff [14]: 0.00046 s⁻¹
kon [14]: 980000 M⁻¹ s⁻¹
Kd (Human CD47-C33G [15]): 1.5 nM
koff (Human CD47-C33G [15]): 0.00086 s⁻¹
kon (Human CD47-C33G [15]): 570000 M⁻¹ s⁻¹
Kd [16]: 0.38 nM
koff [16]: 0.00041 s⁻¹
kon [16]: 1.1e+06 M⁻¹ s⁻¹
EC50 [5]: 4.3 nM
EC50 [6]: 2.6 nM
Kd (Human CD47-C33G [17]): 1.5 nM
koff (Human CD47-C33G [17]): 0.00086 s⁻¹
kon (Human CD47-C33G [17]): 570000 M⁻¹ s⁻¹
Kd [18]: 0.38 nM
koff [18]: 0.00041 s⁻¹
kon [18]: 1.1e+06 M⁻¹ s⁻¹
Kd (Human CD47-C33G [19]): 1.8 nM
koff (Human CD47-C33G [19]): 0.00087 s⁻¹
kon (Human CD47-C33G [19]): 480000 M⁻¹ s⁻¹
Kd [20]: 0.4 nM
koff [20]: 0.00042 s⁻¹
kon [20]: 1.1e+06 M⁻¹ s⁻¹
B2: 108VH4.M4-VL1.M1 (antibody, V domains shown)
VH: EVQLVQSGAEVKKPGSSVKVSCKASGYSFTHHWIHWVRQAPGQGLEWMGMIDASDSETRLSQKFKDRVTITADKSTSTAYMELSSLRSEDTAVYYCARLGRYYFDYWGQGTTVTVSS
VL: EIVLTQSPATLSLSPGERATLSCRASENVGTYISWYQQKPGQAPRLLIYGASNRYTGIPARFSGSGSGTDFTLTISSLEPEDFAVYYCGESYGHLYTFGGGTKVEIK
notes: also called original humanized 108C10A6 antibody

Kd (Human CD47-C33G [8]): 36 nM
koff (Human CD47-C33G [8]): 0.003 s⁻¹
kon (Human CD47-C33G [8]): 85000 M⁻¹ s⁻¹
Kd [9]: 6.1 nM
koff [9]: 0.0014 s⁻¹
kon [9]: 230000 M⁻¹ s⁻¹
Kd (Human CD47-C33G [11]): 34 nM
koff (Human CD47-C33G [11]): 0.0034 s⁻¹
kon (Human CD47-C33G [11]): 99000 M⁻¹ s⁻¹
Kd [12]: 5.6 nM
koff [12]: 0.0013 s⁻¹
kon [12]: 230000 M⁻¹ s⁻¹
Kd (Human CD47-C33G [13]): 43 nM
koff (Human CD47-C33G [13]): 0.0038 s⁻¹
kon (Human CD47-C33G [13]): 87000 M⁻¹ s⁻¹
Kd [14]: 5.8 nM
koff [14]: 0.0016 s⁻¹
kon [14]: 280000 M⁻¹ s⁻¹
fold drop of mono-valent binding affinity (reference not given; Table 2, experiment 1) (Human CD47-C33G [21]): 34 fold
Kd (Human CD47-C33G [17]): 28 nM
koff (Human CD47-C33G [17]): 0.003 s⁻¹
kon (Human CD47-C33G [17]): 110000 M⁻¹ s⁻¹
Kd [18]: 5.2 nM
koff [18]: 0.0013 s⁻¹
kon [18]: 240000 M⁻¹ s⁻¹
B3: 108VH10 / 108VL10.M1 (antibody, V domains shown)
VH: EVQLVESGGGLVQPGGSLRLSCAASGYSFTHHWIHWVRQAPGKGLEWVAMIDPSDSETRLSQKFKDRFTISADTSKNTAYLQMNSLRAEDTAVYYCSRLGRYYFDYWGQGTLVTVSS
VL: DIQMTQSPSSLSASVGDRVTITCRASENVGTYISWYQQKPGKAPKLLIYGASNRYTGVPSRFSGSRSGTDFTLTISSLQPEDFATYYCGESYGHLYTFGQGTKVEIK
notes: 4D5-framework series; also called VH10 VL10.M1; straight-graft antibody
